Source: patent publication US20260085105A1 (Amgen, published 2026)

How the values were obtained:
[1] = biological target: T1, AXIN1 peptide on HLA-A*02:01 (human); assay: killing
T1 peptide: ILDEHVQRV

[2] = biological target: T2, KIAA1033 peptide on HLA-A*02:01 (human); assay: killing
T2 peptide: KVLNKVITV

[3] = biological target: T3, GRP78 peptide on HLA-A*02:01 (human); assay: killing
T3 peptide: KVTHAVVTV

[4] = biological target: T4, TSC1 peptide on HLA-A*02:01 (human); assay: killing
T4 peptide: SLLGHVIRL

[5] = biological target: T5, TRMT1L peptide on HLA-A*02:01 (human); assay: killing
T5 peptide: VALEHFVLV

[6] = biological target: T6, ANO5 peptide on HLA-A*02:01 (human); assay: killing
T6 peptide: IVMEHVVFL

[7] = biological target: T7, SYNE3 peptide on HLA-A*02:01 (human); assay: killing
T7 peptide: KLLDLQVRV

[8] = biological target: T8, RG1L peptide on HLA-A*02:01 (human); assay: killing
T8 peptide: FLLETVVRV

[9] = biological target: T9, ATAD2 peptide on HLA-A*02:01 (human); assay: killing
T9 peptide: KILEALQRV

[10] = biological target: T10, NSD1 peptide on HLA-A*02:01 (human); assay: killing
T10 peptide: KVQEQVHKV

[11] = biological target: T11, MADD peptide on HLA-A*02:01 (human); assay: killing
T11 peptide: ILLEHKVVL

[12] = biological target: T12, PTRF peptide on HLA-A*02:01 (human); assay: killing
T12 peptide: KLLEKVRKV

[13] = biological target: T13, GPC5 peptide on HLA-A*02:01 (human); assay: killing
T13 peptide: KLLEQVNRI

[14] = biological target: T14, CNOT1 peptide on HLA-A*02:01 (human); assay: killing
T14 peptide: KVLGIVVGV

[15] = biological target: T15, HTR5A peptide on HLA-A*02:01 (human); assay: killing
T15 peptide: KVLETLVTV

[16] = biological target: T16, HNRNPR peptide on HLA-A*02:01 (human); assay: killing
T16 peptide: KVWGNVVTV

[17] = biological target: T17, TP2 peptide on HLA-A*02:01 (human); assay: killing
T17 peptide: KILEDVVGV

[18] = biological target: T18, HERC4 peptide on HLA-A*02:01 (human); assay: killing
T18 peptide: KVLEILHRV

[19] = biological target: T19, PSME2 peptide on HLA-A*02:01 (human); assay: killing
T19 peptide: KVLERVNAV

[20] = biological target: T20, MIA3 peptide on HLA-A*02:01 (human); assay: killing
T20 peptide: KVLDKVFRA

[21] = biological target: T21, MAGE-A4 (100% identical in MAGEA8) peptide on HLA-A*02:01 (human); assay: multimer staining
T21 peptide: KVLEHVVRV

[22] = biological target: T22, PLD4 peptide on HLA-A*02:01 (human); assay: killing
T22 peptide: GLFDGVPTTA

[23] = biological target: T23, AK2 peptide on HLA-A*02:01 (human); assay: killing
T23 peptide: FLLDGFPRTV

[24] = biological target: T24, OSBPL10 peptide on HLA-A*02:01 (human); assay: killing
T24 peptide: SQYSGQLHEV

[25] = biological target: T25, MYOF peptide on HLA-A*02:01 (human); assay: killing
T25 peptide: FFVYDEPGHAV

[26] = biological target: T26, IMPDH1 peptide on HLA-A*02:01 (human); assay: killing
T26 peptide: IIADGGIQTV

[27] = biological target: T27, DYNC1H1 peptide on HLA-A*02:01 (human); assay: killing
T27 peptide: FLSDPQVHTV

[28] = biological target: T28, COX14 peptide on HLA-A*02:01 (human); assay: killing
T28 peptide: TVYGGYLCSV

[29] = biological target: T29, UTRN peptide on HLA-A*02:01 (human); assay: killing
T29 peptide: NQWDGTQHGV

[30] = biological target: T30, DDAH peptide on HLA-A*02:01 (human); assay: killing
T30 peptide: VLFTGREFFV

[31] = biological target: T31, VPS13B peptide on HLA-A*02:01 (human); assay: killing
T31 peptide: GLMDGSPHFL

[32] = biological target: T32, CDNP2 peptide on HLA-A*02:01 (human); assay: killing
T32 peptide: GVYGGSVHEA

[33] = biological target: T33, XIAP peptide on HLA-A*02:01 (human); assay: killing
T33 peptide: FLYTGEGTV

[34] = biological target: T34, DPYSL4 peptide on HLA-A*02:01 (human); assay: killing
T34 peptide: GLYDGPVHEV

[35] = biological target: T35, FAS peptide on HLA-A*02:01 (human); assay: killing
T35 peptide: ALLDGRLQVV

[36] = biological target: T36, ACTB peptide on HLA-A*02:01 (human); assay: killing
T36 peptide: DSGDGVTHTV

[37] = biological target: T37, ATOH8 peptide on HLA-A*02:01 (human); assay: killing
T37 peptide: VLEDGPWKTV

[38] = biological target: T38, KEAP1 peptide on HLA-A*02:01 (human); assay: killing
T38 peptide: GVIDGHIYAV

[39] = biological target: T39, DPYSL2 peptide on HLA-A*02:01 (human); assay: killing
T39 peptide: GLYDGPVCEV

[40] = biological target: T40, PGRMC1 peptide on HLA-A*02:01 (human); assay: killing
T40 peptide: LLKEGEEPTV

[41] = biological target: T41, STXBP5 peptide on HLA-A*02:01 (human); assay: killing
T41 peptide: YTYDEAIHSV

[42] = biological target: T42, MAGE-A4 peptide on HLA-A*02:01 (human); assay: multimer staining
T42 peptide: GVYDGREHTV

[43] = biological target: … (MAGEA8)/HLA-A*02:01 (human); assay: cell-based or functional assay

B1: TCR4 (TCR10) (TCR, V domains shown)
Valpha: LAKTTQPISMDSYEGQEVNITCSHNNIATNDYITWYQQFPSQGPRFIIQGYKTKVTNEVASLFIPADRKSSTLSLPRVSLSDTAVYYCLVGGDEDMRFGAGTRLTVKP
Vbeta: EAGVAQSPRYKIIEKRQSVAFWCNPISGHATLYWYQQILGQGPKLLIQFQNNGVVDDSQLPKDRFSAERLKGVDSTLKIQPAKLEDSAVYLCASSLEYGPTYEQYFGPGTRLTVT
B1: no recognition [1]; no recognition [2]; no recognition [3]. B1: no recognition [4]; no recognition [5]; no recognition [6]. B1: no recognition [7]; no recognition [8]; no recognition [9]. B1: no recognition [10]; no recognition [11]; no recognition [12]. B1: no recognition [13]; no recognition [14]; no recognition [15]. B1: no recognition [16]; no recognition [17]; no recognition [18]. B1: no recognition [19]; no recognition [20]; recognises [21].

B2: TCR8 of Tables 1A and 1B (printed TCR18) (TCR, V domains shown)
Valpha: KQEVTQIPAALSVPEGENLVLNCSFTDSAIYNLQWFRQDPGKGLTSLLLIQSSQREQTSGRLNASLDKSSGRSTLYIAASQPGDSATYLCAVDAHARLMFGDGTQLVVKP
Vbeta: EPEVTQTPSHQVTQMGQEVILRCVPISNHLYFYWYRQILGQKVEFLVSFYNNEISEKSEIFDDQFSVERPDGSNFTLKIRSTKLEDSAMYFCASISGEQYFGPGTRLTVT
B2: no recognition [22]; no recognition [23]; no recognition [24]. B2: no recognition [25]; no recognition [26]; no recognition [27]. B2: no recognition [28]; no recognition [29]; no recognition [30]. B2: no recognition [31]; no recognition [32]; no recognition [33]. B2: no recognition [34]; no recognition [35]; no recognition [36]. B2: no recognition [37]; no recognition [38]; no recognition [39]. B2: no recognition [40]; no recognition [41]; recognises [42].

B3: TCR18 (running number 7 of Table 1A) (TCR, V domains shown)
V domain 1: AQTVTQSQPEMSVQEAETVTLSCTYDTSENNYYLFWYKQPPSRQMILVIRQEAYKQQNATENRFSVNFQKAAKSFSLKISDSQLGDTAMYFCALLDSGNTPLVFGKGTRLSVIA
V domain 2: NAGVTQTPKFRILKIGQSMTLQCAQDMNHNYMYWYRQDPGMGLKLIYYSVGAGITDKGEVPNGYNVSRSTTEDFPLRLELAAPSQTSVYFCASSYTNNEQFFGPGTRLTVLE
In the case of B3, the “fold difference in EC50 between the MAGEA4 and MAGEA8 peptides, TDCC on peptide-loaded T2 cells” value [43] is reported as greater than 1000 fold.

B4: TCR7 of Tables 1A and 1B (TCR18) (TCR, V domains shown)
Valpha: AQTVTQSQPEMSVQEAETVTLSCTYDTSENNYYLFWYKQPPSRQMILVIRQEAYKQQNATENRFSVNFQKAAKSFSLKISDSQLGDTAMYFCALLDSGNTPLVFGKGTRLSVIA
Vbeta: NAGVTQTPKFRILKIGQSMTLQCAQDMNHNYMYWYRQDPGMGLKLIYYSVGAGITDKGEVPNGYNVSRSTTEDFPLRLELAAPSQTSVYFCASSYTNNEQFFGPGTRLTVL
B4: no recognition [22]; no recognition [23]; no recognition [24]. B4: no recognition [25]; no recognition [26]; no recognition [27]. B4: no recognition [28]; no recognition [29]; no recognition [30]. B4: no recognition [31]; no recognition [32]; no recognition [33]. B4: no recognition [34]; no recognition [35]; no recognition [36]. B4: no recognition [37]; no recognition [38]; no recognition [39]. B4: no recognition [40]; no recognition [41]; recognises [42].

B5: TCR6 of Tables 1A and 1B (TCR7 of the examples) (TCR, V domains shown)
Valpha: AQTVTQSQPEMSVQEAETVTLSCTYDTSENNYYLFWYKQPPSRQMILVIRQEAYKQQNATENRFSVNFQKAAKSFSLKISDSQLGDTAMYFCAFVDSGYALNFGKGTSLLVTP
Vbeta: DVKVTQSSRYLVKRTGEKVFLECVQDMDHENMFWYRQDPGLGLRLIYFSYDVKMKEKGDIPEGYSVSREKKERFSLILESASTNQTSMYLCASSLDGARTQYFGPGTRLTVL
B5: no recognition [1]; no recognition [2]; no recognition [3]. B5: no recognition [4]; no recognition [5]; no recognition [6]. B5: no recognition [7]; no recognition [8]; no recognition [9]. B5: no recognition [10]; no recognition [11]; no recognition [12]. B5: no recognition [13]; no recognition [14]; no recognition [15]. B5: no recognition [16]; no recognition [17]; no recognition [18]. B5: no recognition [19]; no recognition [20]; recognises [21].
